Assay results from US20230159934, “INSULIN RECEPTOR APTAMER AND PHARMACEUTICAL COMPOSITION FOR TREATING DIABETES COMPRISING THE SAME” (APTAMER SCIENCES INC., published 2023).

Columns and labels:
Conditions in all cases: chain copies: 2
[1] = target: T1, Insulin receptor (hIR) expressed on Rat-1/hIR cells (Homo sapiens, UniProt P06213;P06213 P06213:28-758,P06213:763-1382); assay: cell_activity; IR phosphorylation, 200 nM, Rat-1/hIR; Table 5 gives 0.83
Description: (§1) To identify the insulin receptor phosphorylation activity of the chemical variant samples of A48m prepared in Example 2-1, an experiment was performed as follows. Particularly, Rat-1/hIR cells were seeded on a 12-well plates at a density of 10⁵ cells per well and cultured overnight in a high glucose Dulbecco's modified Eagle's medium (DMEM) supplemented with 10% fetal bovine serum (FBS). The cells untreated with the aptamer samples were incubated in the DMEM not including FBS for 3 hours, washed three times with 1×PBS, and incubated in a Krebs-Ringer HEPES buffer [25 mM HEPES (pH 7.4), 120 mM NaCl, 5 mM KCl, 1.2 mM MgSO₄, 1.3 mM CaCl₂, and 1.3 mM KH₂PO₄] for 1 hour. The aptamer samples, which were the chemical variants of A48m prepared in Example 2-1, were heated at 95° C. for 5 minutes and cooled at room temperature such that a three-dimensional structure of each aptamer was reconstructed. The aptamers were dissolved in the Krebs-Ringer HEPES buffer for preparation.
(§2) The aptamer samples were added to each well of the 12-well plate and incubated for 1 hour. After 1 hour, the plate was washed three times with 1×PBS and the cells were isolated from the plate and lysed with a lysis buffer. The cell lysates were centrifuged at 4° C. at 14,000 rpm for 15 minutes to isolate proteins. […] Intensities of bands formed on the membrane were quantified via comparison with A48m.

[2] = target: T1, Insulin receptor (hIR) expressed on …; assay: cell_activity; IR phosphorylation, 200 nM, Rat-1/hIR; Table 5 gives 0.9
Description: as §1, §2

[3] = target: T1, Insulin receptor (hIR) expressed on …; assay: cell_activity; IR phosphorylation, 200 nM, Rat-1/hIR; Table 5 gives 0.95
Description: as §1, §2

[4] = target: T1, Insulin receptor (hIR) expressed on …; assay: cell_activity; IR phosphorylation, 200 nM, Rat-1/hIR; Table 5 gives 0.77
Description: as §1, §2

[5] = target: T1, Insulin receptor (hIR) expressed on …; assay: cell_activity; IR phosphorylation, 200 nM, Rat-1/hIR
Description: as §1
The aptamer samples were added to each well of the 12-well plate and incubated for 1 hour. After 1 hour, the plate was washed three times with 1×PBS and the cells were isolated from the plate and lysed with a lysis buffer. The cell lysates were centrifuged at 4° C. at 14,000 rpm for 15 minutes to isolate proteins. The isolated samples were heated at 100° C. for 5 minutes with a 5× sample buffer and slowly cooled at room temperature to prepare western blot samples. The prepared samples were subjected to electrophoresis on 4%-12% SDS-PAGE for 1 hour and 30 minutes and transferred to a nitrocellulose membrane for 1 hour and 30 minutes. Then, the membrane was blocked at room temperature for 40 minutes in a blocking buffer solution (1×PBST, 3% skim milk) and incubated for 1 hour at room temperature with a primary antibody [anti-phosphor-IR (10C3), Santa Cruz Biotechnology or anti-β-actin (D6A8), Cell Signaling Technology] diluted in a blocking buffer at 1:500 or 1:1000. The membrane was washed three times with 1×PBS and incubated for 1 hour at room temperature with a secondary binding antibody diluted in the blocking buffer at 1:20000, and washed three times with 1×PBST. An ECL solution was sprayed onto the membrane, followed by incubation at room temperature for 1 minute and exposure to x-rays. Intensities of bands formed on the membrane were quantified via comparison with A48m.

[6] = target: T2, Insulin receptor on differentiated 3T3-L1 adipocytes (UniProt P15208;P15208 P15208:28-748,P15208:753-1372); assay: cell_activity; lipolysis (glycerol release) inhibition in 3T3-L1 adipocytes; insulin 2.07 nM
Description: To identify the effect of the chemically optimized A48m (A48m combi 2 to 5) on lipolysis inhibition as insulin receptor aptamers, an amount of glycerol released in a lipolysis process was measured by using completely differentiated 3T3-L1 adipocytes.
Particularly, for serum deficiency, the completely differentiated 3T3-L1 adipocytes were treated with DMEM with no FBS for 3 hours and treated with a Krebs-Ringer HEPES buffer solution for 1 hour to induce lipolysis caused by deficiency of glucose. The adipocytes were treated respectively with insulin or the A48m combi 3 aptamer in concentrations of 0.93 nM, 2.59 nM, 7.26 nM, 20.34 nM, 56.94 nM, 159.44 nM, 446.43 nM, 1250 nM, and 3500 nM for 4 hours, and then a buffer used to treat the cells was collected. 20 μl of the collected buffer was added to a 96-well plate and 200 μl of a free glycerol reagent (Sigma F6428) was added thereto, followed by reaction at room temperature for 30 minutes. Then, concentration-dependent color development of glycerol released from the cells was measured by measuring absorbance at 540 nm.

[7] = target: T2, Insulin receptor on differentiated …; assay: cell_activity; glucose uptake in differentiated 3T3-L1 adipocytes; insulin 9.6 nM
Description: For serum deficiency, the completely differentiated 3T3-L1 adipocytes were treated with DMEM with no FBS for 3 hours and treated with a Krebs-Ringer HEPES buffer solution for 1 hour. Subsequently, the adipocytes were treated respectively with insulin or the A48m combi 3 aptamer in concentrations of 1.6 nM, 8 nM, 40 nM, 200 nM, and 1000 nM for a given time and then treated with 2-deoxy[14C]glucose (0.1 μCi/ml) for 10 minutes. The resultant was washed three times with PBS supplemented with 20 mM glucose and the cells were dissolved using a solution including 0.5 N NaOH and 1% SDS. An amount of 2-Deoxy-D-glucose absorbed into the cells was observed using a liquid scintillation counter.

[8] = target: T1, Insulin receptor (hIR) expressed on …; assay: cell_activity; IR phosphorylation reference, 200 nM, Rat-1/hIR
Description: as §1, §2

T1 sequence (P06213 28-758, chain 1 of 2): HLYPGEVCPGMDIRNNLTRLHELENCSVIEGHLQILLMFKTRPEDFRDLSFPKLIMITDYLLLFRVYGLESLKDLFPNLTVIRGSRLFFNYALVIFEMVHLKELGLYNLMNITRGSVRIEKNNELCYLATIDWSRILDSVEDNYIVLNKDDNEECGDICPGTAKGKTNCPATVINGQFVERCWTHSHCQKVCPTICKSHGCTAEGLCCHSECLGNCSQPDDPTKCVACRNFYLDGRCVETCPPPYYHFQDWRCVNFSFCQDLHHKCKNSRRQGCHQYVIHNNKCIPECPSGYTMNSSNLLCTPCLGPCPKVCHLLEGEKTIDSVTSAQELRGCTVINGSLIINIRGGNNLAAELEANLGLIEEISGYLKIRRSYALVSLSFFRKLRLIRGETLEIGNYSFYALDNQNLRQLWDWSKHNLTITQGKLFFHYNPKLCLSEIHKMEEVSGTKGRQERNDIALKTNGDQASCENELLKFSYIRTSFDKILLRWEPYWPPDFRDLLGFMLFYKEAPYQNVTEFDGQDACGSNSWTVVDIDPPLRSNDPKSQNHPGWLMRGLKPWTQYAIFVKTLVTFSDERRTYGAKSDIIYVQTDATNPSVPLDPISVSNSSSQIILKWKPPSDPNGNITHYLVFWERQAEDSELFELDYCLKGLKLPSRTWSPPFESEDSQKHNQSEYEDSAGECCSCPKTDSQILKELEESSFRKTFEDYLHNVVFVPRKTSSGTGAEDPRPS
T1 sequence (P06213 763-1382, chain 2 of 2): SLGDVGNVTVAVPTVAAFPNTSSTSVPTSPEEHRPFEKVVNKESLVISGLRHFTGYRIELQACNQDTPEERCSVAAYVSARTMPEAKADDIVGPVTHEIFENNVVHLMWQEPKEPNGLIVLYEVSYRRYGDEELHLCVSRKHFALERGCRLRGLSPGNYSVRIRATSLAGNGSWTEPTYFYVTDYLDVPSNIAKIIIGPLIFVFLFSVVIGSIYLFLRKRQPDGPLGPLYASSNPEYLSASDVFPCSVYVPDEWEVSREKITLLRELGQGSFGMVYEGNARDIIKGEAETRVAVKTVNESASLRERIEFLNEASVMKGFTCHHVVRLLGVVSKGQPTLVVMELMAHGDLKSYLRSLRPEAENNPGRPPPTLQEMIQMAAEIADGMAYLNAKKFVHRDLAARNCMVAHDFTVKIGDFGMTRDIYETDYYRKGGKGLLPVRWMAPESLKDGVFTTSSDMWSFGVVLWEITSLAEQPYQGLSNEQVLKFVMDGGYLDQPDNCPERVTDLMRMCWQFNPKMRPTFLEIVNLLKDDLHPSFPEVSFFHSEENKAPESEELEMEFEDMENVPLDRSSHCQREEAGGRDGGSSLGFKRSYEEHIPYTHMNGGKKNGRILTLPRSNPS
T2 sequence (P15208 28-748, chain 1 of 2): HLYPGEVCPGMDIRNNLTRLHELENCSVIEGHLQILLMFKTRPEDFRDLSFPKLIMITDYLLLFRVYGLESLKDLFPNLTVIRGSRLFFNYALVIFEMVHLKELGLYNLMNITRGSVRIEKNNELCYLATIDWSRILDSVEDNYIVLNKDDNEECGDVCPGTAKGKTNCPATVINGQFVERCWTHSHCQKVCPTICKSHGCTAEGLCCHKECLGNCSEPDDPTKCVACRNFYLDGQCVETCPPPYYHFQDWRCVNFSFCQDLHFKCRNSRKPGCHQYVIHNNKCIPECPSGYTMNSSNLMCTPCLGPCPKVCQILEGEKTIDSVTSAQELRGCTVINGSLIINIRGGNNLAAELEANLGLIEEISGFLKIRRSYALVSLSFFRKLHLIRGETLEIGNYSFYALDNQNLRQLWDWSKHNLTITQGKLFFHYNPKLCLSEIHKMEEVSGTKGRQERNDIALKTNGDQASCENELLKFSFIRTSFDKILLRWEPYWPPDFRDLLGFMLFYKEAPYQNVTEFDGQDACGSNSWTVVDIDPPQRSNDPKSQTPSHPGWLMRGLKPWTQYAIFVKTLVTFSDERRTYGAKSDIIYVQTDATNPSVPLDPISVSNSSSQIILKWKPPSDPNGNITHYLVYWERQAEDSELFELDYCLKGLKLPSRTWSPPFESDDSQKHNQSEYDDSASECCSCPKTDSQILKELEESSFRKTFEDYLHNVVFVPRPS
T2 sequence (P15208 753-1372, chain 2 of 2): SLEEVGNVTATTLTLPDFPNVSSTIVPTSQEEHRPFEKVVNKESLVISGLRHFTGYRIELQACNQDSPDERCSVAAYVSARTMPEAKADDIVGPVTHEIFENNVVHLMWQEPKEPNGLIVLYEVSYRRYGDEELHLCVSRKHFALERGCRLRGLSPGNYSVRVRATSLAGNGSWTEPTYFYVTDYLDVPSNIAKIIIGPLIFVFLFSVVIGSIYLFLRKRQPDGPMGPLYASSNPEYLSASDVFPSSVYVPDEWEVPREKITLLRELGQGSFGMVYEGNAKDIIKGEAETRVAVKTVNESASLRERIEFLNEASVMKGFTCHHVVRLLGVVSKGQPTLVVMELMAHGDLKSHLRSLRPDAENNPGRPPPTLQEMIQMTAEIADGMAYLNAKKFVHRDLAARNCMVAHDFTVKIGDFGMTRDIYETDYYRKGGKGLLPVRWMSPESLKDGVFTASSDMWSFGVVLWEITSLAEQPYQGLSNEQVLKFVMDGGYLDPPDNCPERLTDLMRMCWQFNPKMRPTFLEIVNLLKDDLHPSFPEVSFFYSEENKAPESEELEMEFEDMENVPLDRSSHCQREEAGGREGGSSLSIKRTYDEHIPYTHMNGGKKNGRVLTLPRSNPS

CGCCTGGTGTTCTAGACGACCTATAGGTTAGGC (ssDNA, P = naphthyl-dU; benzyl-dU at position 10) [A48m P10Z]
activity [1]: 2.7 fold of A48m

CGCCTGGTGTTCTAGACGACCTATAGGTTAGGC (ssDNA, P = naphthyl-dU; benzyl-dU at position 13) [A48m P13Z]
activity [2]: 1 fold of A48m

CGCCTGGTGTTCTAGACGACCTATAGGTTAGGC (ssDNA, P = naphthyl-dU; benzyl-dU at position 28) [A48m P28Z]
activity [3]: 1.09 fold of A48m

CGCCTGGTGTTCTAGACGACCTATAGGTTAGGC (ssDNA, P = naphthyl-dU; benzyl-dU at position 29) [A48m P29Z]
activity [4]: 0.9 fold of A48m

CGCCTGGTGTTCTAGACGACCTATAGGTTAGGC (ssDNA, P = naphthyl-dU; C3 linker at position 12) [A48m C12 C3-linker]
activity [5]: 1.7 fold of A48m

CGCCTGGTGTTCTAGACGACCTATAGGTTAGGC (ssDNA, P = naphthyl-dU; C3 linker at position 18) [A48m G18 C3-linker]
activity [5]: 1.16 fold of A48m

CGCCTGGTGTTCTAGACGACCTATAGGTTAGGC (ssDNA, P = naphthyl-dU; 2'-OMe at position 2) [A48m G2 2'-OMe]
activity [5]: 1.28 fold of A48m

CGCCTGGTGTTCTAGACGACCTATAGGTTAGGC (ssDNA, P = naphthyl-dU; 2'-F at position 27) [A48m G27 2'-F]
activity [5]: 1.11 fold of A48m

B1: A48m combi 3 (ssDNA)
DNA: CCUGGTGTTTAGACGACCTATAGGTTAGG
modifications: CmeCmeUmeGGPGZPLPAmeGAmeCfGAmeCfCmePAmePAGGmePPAmeGmeGme-idT; me = 2'-OMe, f = 2'-F, P = naphthyl-dU, Z = benzyl-dU, L = C3 linker, 3' idT [2'-OMe at 1,2,3,11,13,16,18,20,24,27,28,29; 2'-F at 14,17; naphthyl-dU at 6,9,10,19,21,25,26; benzyl-dU at 8; C3 linker (left out) between 9 and 10; 3' idT (left out) after 29]
IC50 [6]: 11 nM | EC50 [7]: 16.5 nM

CGCCTGGTGTTCTAGACGACCTATAGGTTAGGC (ssDNA, P (n) = naphthyl-dU) [A48m (A48 seq 1-19)]
activity [8]: 1 fold of A48m
